For test [1], the target named is rabbit albumin (rabbit, UniProt P49065 25-608). Kind of test: phage ELISA. The method, then: (§1) Phage ELISA—Phage clones (˜10¹¹ phage) were added to plates coated with rat, rabbit or human albumin. The microtiter plate was washed with wash buffer and bound phage were detected with HRP/Anti-M13 Conjugate. The amount of HRP bound was measured using ABTS/H₂O₂ substrate and monitoring the change at 405 nm.

For test [2], the target named is human albumin (human, UniProt P02768 25-609). Nature of the test: phage ELISA. The method, then:
as §1
Background: An ELISA detects its analyte on a solid surface through an enzyme-linked reagent.

Test [3] addresses rat albumin (rat, UniProt P02770 25-608). Kind of test: phage ELISA. As to the method:
as §1

Test [4] has as its target T1, IgG-Fc (UniProt P01857-1 108-330 = IgG part, limits assumed).
T1 construct: domain: IgG-Fc; also called biotinylated-IgG-Fc; biotin-IgG-Fc
Kind of test: phage ELISA, M13/gIII display.

For 48 molecules, binding result and EC50 results are on record in patent US20040253247A1 (Genentech, published 2004).

Sequence of rabbit albumin (P49065 25-608 limits assumed): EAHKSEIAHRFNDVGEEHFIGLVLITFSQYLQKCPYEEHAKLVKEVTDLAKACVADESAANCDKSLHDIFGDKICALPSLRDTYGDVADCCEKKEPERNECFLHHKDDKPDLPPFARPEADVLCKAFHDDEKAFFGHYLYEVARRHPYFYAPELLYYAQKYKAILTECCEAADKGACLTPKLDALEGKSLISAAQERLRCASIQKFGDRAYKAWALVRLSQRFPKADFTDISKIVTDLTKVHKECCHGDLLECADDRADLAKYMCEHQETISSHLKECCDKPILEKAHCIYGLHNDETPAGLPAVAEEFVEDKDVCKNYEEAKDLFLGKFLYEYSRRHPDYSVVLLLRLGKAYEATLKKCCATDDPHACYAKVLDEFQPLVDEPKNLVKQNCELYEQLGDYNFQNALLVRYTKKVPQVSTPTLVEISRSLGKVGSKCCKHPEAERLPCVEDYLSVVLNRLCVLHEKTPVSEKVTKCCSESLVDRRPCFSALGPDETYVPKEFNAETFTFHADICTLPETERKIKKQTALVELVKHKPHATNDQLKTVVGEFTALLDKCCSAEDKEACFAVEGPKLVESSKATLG
Sequence of rat albumin (P02770 25-608 limits assumed): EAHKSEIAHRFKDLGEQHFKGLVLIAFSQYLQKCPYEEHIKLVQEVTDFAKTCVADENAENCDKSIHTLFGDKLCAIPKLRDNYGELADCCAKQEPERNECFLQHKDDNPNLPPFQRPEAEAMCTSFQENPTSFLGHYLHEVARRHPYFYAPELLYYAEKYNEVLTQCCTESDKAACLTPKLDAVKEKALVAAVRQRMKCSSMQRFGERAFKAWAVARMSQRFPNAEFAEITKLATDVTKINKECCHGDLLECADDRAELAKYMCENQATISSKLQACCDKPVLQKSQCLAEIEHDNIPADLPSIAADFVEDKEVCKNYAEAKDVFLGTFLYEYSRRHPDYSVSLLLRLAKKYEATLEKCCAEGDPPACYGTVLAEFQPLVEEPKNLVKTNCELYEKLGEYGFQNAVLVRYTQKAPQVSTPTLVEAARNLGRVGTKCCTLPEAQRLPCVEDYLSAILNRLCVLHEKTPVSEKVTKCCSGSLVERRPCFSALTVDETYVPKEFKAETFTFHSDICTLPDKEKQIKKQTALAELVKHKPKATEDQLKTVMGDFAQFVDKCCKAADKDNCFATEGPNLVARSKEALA

Consider WEDLCLPDWGCLWED (phage clone, Library RBC) [RBC-R5], for which the binding result in test [1] and in test [2] was “no binding” throughout.

KMGRVDFCLPKWGCLWGDEL (phage clone, Library RB) [RB-R13]: the binding result in test [2] is listed as “no binding”.

As for ETCYFPGICWL (phage clone, Library HC) [HC-H12], the binding result in test [3] and in test [1] was “no binding” throughout.

Take ERQMEDFCLPQWGCLWGDGV (phage clone, Library RB) [RB-R1]: the binding result in test [1] and in test [2] was “no binding” throughout.

As for DFDLCLPDWGCLWDD (phage clone, Library RBC) [RBC-R10], the binding result in test [1] and in test [2] was “no binding” each time.

For MFDLCLPKWGCLWGN (phage clone, Library RBC) [RBC-R12], the binding result in test [1] and in test [2] was “no binding” in each case.

On to DICLPVWGCLW (phage clone, Library RC) [RC-R18], for which the binding result in test [1] and in test [2] was “no binding” each time.

For the molecule WDDICFRDWGCLWGS (phage clone, Library RBC) [RBC-R7], the binding result in test [1] and in test [2] was “no binding” throughout.

Consider ERQMVDFCLPKWGCLWGDGF (phage clone, Library RB) [RB-R11], for which, in test [2], the binding result was “no binding”.

Take QRQVVDFCLPQWGCLWGDGS (phage clone, Library RB) [RB-R14]: the binding result in test [1] and in test [2] was “no binding” throughout.

As for DSCGDLLRLGLECWA (phage clone, Library RD) [RD-R6], the binding result in test [1] and in test [2] was “no binding” each time.

On to QGDFWDICLPRWGCLSGEGY (phage clone, Library RB) [RB-B10], for which the binding result in test [2] is recorded as “no binding”.

Turning to QMQMSDFCLPQWGCLWGDGY (phage clone, Library RB) [RB-R3], the binding result in test [1] and in test [2] was “no binding” each time.

Take QRQIMDFCLPHWGCLWGDGF (phage clone, Library RB) [RB-R10]: the binding result in test [1] and in test [2] was “no binding” throughout.

Turning to QGYMVDFCLPRWGCLWGDAN (phage clone, Library RB) [RB-R12], the binding result in test [2] is “no binding”.

As for RWQTEDVCLPKWGCLFGDGV (phage clone, Library RB) [RB-B1], in test [2], the binding result is “no binding”.

DICLPVWGCLW (phage clone, Library RC) [RC-R2]: the binding result in test [1] and in test [2] was “no binding” in each case.

Consider DTCEDLVRLGLECWA (phage clone, Library RD) [RD-R5], for which the binding result in test [1] and in test [2] was “no binding” throughout.

On to NTCADLVRLGLECWA (phage clone, Library RD) [RD-R7], for which the binding result in test [1] and in test [2] was “no binding” throughout.

DICLPVWGCLW (phage clone, Library RC) [RC-R1]: the binding result in test [1] and in test [2] was “no binding” in each case.

Take LAEMCYFPGICWMSA (phage clone, Library HBC) [HBC-H7]: the binding result in test [3] and in test [1] was “no binding” throughout.

Take GRQVVDFCLPKWGCLWEEGL (phage clone, Library RB) [RB-R2]: the binding result in test [1] and in test [2] was “no binding” each time.

In the case of NWDLCFPDWGCLWDD (phage clone, Library RBC) [RBC-R8], the binding result in test [1] and in test [2] was “no binding” throughout.

On to QGGMGDFCLPQWGCLWGEDL (phage clone, Library RB) [RB-R17], for which the binding result in test [2] was “no binding”.

For DICLPVWGCLW (phage clone, Library RC) [RC-R12], the binding result in test [1] and in test [2] was “no binding” throughout.

Consider FEDFCLPNWGCLWGS (phage clone, Library RBC) [RBC-R4], for which the binding result in test [1] and in test [2] was “no binding” in each case.

For the molecule MDDICLHHWGCLWDE (phage clone, Library RBC) [RBC-R1], the binding result in test [1] and in test [2] was “no binding” each time.

On to DICLPVWGCLW (phage clone, Library RC) [RC-R3], for which the binding result in test [1] and in test [2] was “no binding” each time.

Regarding QRHMMDFCLPKWGCLWGDGY (phage clone, Library RB) [RB-R4], in test [2], the binding result is “no binding”.

As for FEDLCVVRWGCLWGD (phage clone, Library RBC) [RBC-R6], the binding result in test [1] and in test [2] was “no binding” in each case.

With EEDVCLPVWGCLWEG (phage clone, Library RBC) [RBC-R20], the binding result in test [1] and in test [2] was “no binding” in each case.

For the molecule EWDVCFPAWGCLWDQ (phage clone, Library RBC) [RBC-R18], the binding result in test [1] and in test [2] was “no binding” throughout.

With EWDVCLPHWGCLWDG (phage clone, Library RBC) [RBC-R16], the binding result in test [2] is recorded as “no binding”.

Turning to DICLPVWGCLW (phage clone, Library RC) [RC-R10], the binding result in test [1] and in test [2] was “no binding” throughout.

EFDLCLPTWGCLWED (phage clone, Library RBC) [RBC-R13]: the binding result in test [1] and in test [2] was “no binding” each time.

KSRMGDFCLPEWGCLWGDEL (phage clone, Library RB) [RB-R9]: the binding result in test [1] and in test [2] was “no binding” in each case.

B1: phage clone KEADCAWHLGELVWCVAGVE (peptide)
peptide: KEADCAWHLGELVWCVAGVE
notes: M13/gIII phage display; Focused Libraries
The EC50 is the concentration that produces a half-maximal response. A higher EC50 goes with lower potency in that assay. In test [4], B1 had an EC50 of 138 nM.

As to QSQLEDFCLPKWGCLWGDGF (phage clone, Library RB) [RB-R15], in test [2], the binding result is recorded as “no binding”.

Consider MDDLCLPNWGCLWGD (phage clone, Library RBC) [RBC-R2], for which the binding result in test [1] and in test [2] was “no binding” in each case.

B2: phage clone WEADCAWHLGELVWCTKVEE (peptide)
peptide: WEADCAWHLGELVWCTKVEE
notes: M13/gIII phage display; Secondary Optimization
B2 had an EC50 in test [4] of 7 nM. That is a single-digit nanomolar value.

B3: phage clone GEADCAWHLGELVWCTKVEE (peptide)
peptide: GEADCAWHLGELVWCTKVEE
notes: as for B2
As to B3, in test [4], the EC50 worked out at 38 nM.

In the case of VWDLCLPQWGCLWDE (phage clone, Library RBC) [RBC-R11], the binding result in test [1] and in test [2] was “no binding” in each case.

Regarding MWDVCFPDWGCLWDV (phage clone, Library RBC) [RBC-R15], the binding result in test [1] and in test [2] was “no binding” in each case.

Regarding QRLMWEICLPLWGCLWGDGL (phage clone, Library RB) [RB-R5], the binding result in test [1] and in test [2] was “no binding” throughout.

Take SEDFCLPVWGCLWED (phage clone, Library RBC) [RBC-R9]: the binding result in test [1] and in test [2] was “no binding” in each case.

On to DTCDDLVQLGLECWA (phage clone, Library RD) [RD-R11], for which the binding result in test [1] and in test [2] was “no binding” throughout.

On to QRPIMDFCLPKWGCLWEDGF (phage clone, Library RB) [RB-R7], for which, in test [2], the binding result is listed as “no binding”.

Take DTCSDLVGLGLECWA (phage clone, Library RD) [RD-R1]: the binding result in test [1] and in test [2] was “no binding” in each case.
